Test results reported in the supplement of paper PMC10567573.

B1: PCDHGA10 (parent)
chain: FHELQMQVTASDSGDPPLSSNVSL
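Note: lentivirally expressed fusions sorted by FACS into six bins by GFP to DsRed ratio, PSI derived from sequencing read proportions per bin multiplied by bin number.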

Variants of: B1
Test: protein stability index of a GFP-peptide fusion (GPS, HEK-293T) (PSI 1-6); higher = more stable
Conditions: c terminus: a fixed tail appended
Work on FHELQMQVTASDSGDPPLSSNHSL yielded a protein stability index of 3.13.
With FHELQMQVTASDSGDPPLSSNFSL the protein stability index was 1.8.
FHELQMQVTASDSGDPPLSSNCSL showed a protein stability index of 2.38.
For FHELQMQVTASDSGDPPLSSNRSL, the protein stability index was 2.69.
FHELQMQVTASDSGDPPLSSNASL gave a protein stability index of 2.52.
In the case of FHELQMQVTASDSGDPPLSSNSSL, the protein stability index is reported as 3.11.
With FHELQMQVTASDSGDPPLSSNLSL the protein stability index was 2.71.
In the case of FHELQMQVTASDSGDPPLSSNWSL, the protein stability index is reported as 2.05.
FHELQMQVTASDSGDPPLSSNDSL gave a protein stability index of 3.4.
Work on FHELQMQVTASDSGDPPLSSNYSL yielded a protein stability index of 2.56.
FHELQMQVTASDSGDPPLSSNNSL gave a protein stability index of 2.77.
For FHELQMQVTASDSGDPPLSSNESL, the protein stability index was 3.24.
FHELQMQVTASDSGDPPLSSNTSL showed a protein stability index of 2.83.
Work on FHELQMQVTASDSGDPPLSSNKSL yielded a protein stability index of 2.84.
In the case of FHELQMQVTASDSGDPPLSSNPSL, the protein stability index is reported as 2.34.
In the case of FHELQMQVTASDSGDPPLSSNMSL, the protein stability index is reported as 2.34.
In the case of FHELQMQVTASDSGDPPLSSNISL, the protein stability index is reported as 1.85.
For FHELQMQVTASDSGDPPLSSNQSL, the protein stability index was 2.43.
FHELQMQVTASDSGDPPLSSNGSL gave a protein stability index of 2.72.
Work on FHELQMQVTASDSGDPPLHSNVSL yielded a protein stability index of 1.81.
FHELQMQVTASDSGDPPLESNVSL showed a protein stability index of 3.04.
FHELQMQVTASDSGDPPLCSNVSL showed a protein stability index of 1.93.
In the case of FHELQMQVTASDSGDPPLFSNVSL, the protein stability index is reported as 2.07.
In the case of FHELQMQVTASDSGDPPLRSNVSL, the protein stability index is reported as 2.02.
Variant FHELQMQVTASDSGDPPLDSNVSL has a protein stability index of 3.07.
Work on FHELQMQVTASDSGDPPLISNVSL yielded a protein stability index of 1.66.
FHELQMQVTASDSGDPPLYSNVSL showed a protein stability index of 1.94.
FHELQMQVTASDSGDPPLQSNVSL gave a protein stability index of 2.36.
Work on FHELQMQVTASDSGDPPLKSNVSL yielded a protein stability index of 2.11.
Variant FHELQMQVTASDSGDPPLWSNVSL has a protein stability index of 2.45.
With FHELQMQVTASDSGDPPLPSNVSL the protein stability index was 2.2.
In the case of FHELQMQVTASDSGDPPLMSNVSL, the protein stability index is reported as 2.36.
For FHELQMQVTASDSGDPPLVSNVSL, the protein stability index was 1.57.
Variant FHELQMQVTASDSGDPPLNSNVSL has a protein stability index of 2.39.
Variant FHELQMQVTASDSGDPPLTSNVSL has a protein stability index of 2.02.
With FHELQMQVTASDSGDPPLGSNVSL the protein stability index was 2.
With FHELQMQVTASDSGDPPLLSNVSL the protein stability index was 1.85.
Work on FHELQMQVTASDSGDPPLSSEVSL yielded a protein stability index of 2.61.
FHELQMQVTASDSGDPPLSSWVSL showed a protein stability index of 1.55.
For FHELQMQVTASDSGDPPLSSFVSL, the protein stability index was 1.54.
With FHELQMQVTASDSGDPPLSSCVSL the protein stability index was 2.09.
Work on FHELQMQVTASDSGDPPLSSRVSL yielded a protein stability index of 1.91.
FHELQMQVTASDSGDPPLSSSVSL gave a protein stability index of 2.1.
For FHELQMQVTASDSGDPPLSSAVSL, the protein stability index was 2.25.
For FHELQMQVTASDSGDPPLSSKVSL, the protein stability index was 2.08.
In the case of FHELQMQVTASDSGDPPLSSMVSL, the protein stability index is reported as 1.75.
For FHELQMQVTASDSGDPPLSSLVSL, the protein stability index was 2.34.
For FHELQMQVTASDSGDPPLSSIVSL, the protein stability index was 1.79.
FHELQMQVTASDSGDPPLSSYVSL showed a protein stability index of 1.64.
Work on FHELQMQVTASDSGDPPLSSQVSL yielded a protein stability index of 2.05.
With FHELQMQVTASDSGDPPLSSGVSL the protein stability index was 2.24.
With FHELQMQVTASDSGDPPLSSDVSL the protein stability index was 2.5.
For FHELQMQVTASDSGDPPLSSHVSL, the protein stability index was 2.06.
FHELQMQVTASDSGDPPLSSTVSL showed a protein stability index of 2.09.
In the case of FHELQMQVTASDSGDPPLSSPVSL, the protein stability index is reported as 2.5.
FHELQMQVTASDSGDPPLSSVVSL gave a protein stability index of 1.58.
FHELQMQVTASDSGDPPLSSNVSC showed a protein stability index of 2.84.
FHELQMQVTASDSGDPPLSSNVSH showed a protein stability index of 2.84.
With FHELQMQVTASDSGDPPLSSNVST the protein stability index was 3.22.
FHELQMQVTASDSGDPPLSSNVSK gave a protein stability index of 2.79.
Variant FHELQMQVTASDSGDPPLSSNVSQ has a protein stability index of 3.26.
Variant FHELQMQVTASDSGDPPLSSNVSP has a protein stability index of 2.9.
FHELQMQVTASDSGDPPLSSNVSN gave a protein stability index of 2.96.
With FHELQMQVTASDSGDPPLSSNVSV the protein stability index was 2.72.
With FHELQMQVTASDSGDPPLSSNVSW the protein stability index was 2.64.
Work on FHELQMQVTASDSGDPPLSSNVSI yielded a protein stability index of 1.83.
For FHELQMQVTASDSGDPPLSSNVSY, the protein stability index was 2.31.
Variant FHELQMQVTASDSGDPPLSSNVSD has a protein stability index of 3.17.
Variant FHELQMQVTASDSGDPPLSSNVSM has a protein stability index of 2.68.
In the case of FHELQMQVTASDSGDPPLSSNVSF, the protein stability index is reported as 2.06.
FHELQMQVTASDSGDPPLSSNVSS gave a protein stability index of 3.29.
In the case of FHELQMQVTASDSGDPPLSSNVSG, the protein stability index is reported as 2.52.
Variant FHELQMQVTASDSGDPPLSSNVSA has a protein stability index of 3.29.
Work on FHELQMQVTASDSGDPPLSSNVSE yielded a protein stability index of 3.07.
FHELQMQVTASDSGDPPLSSNVSR gave a protein stability index of 2.75.
Variant FHELQMQVTASDSGDPPLSINVSL has a protein stability index of 2.85.
Variant FHELQMQVTASDSGDPPLSMNVSL has a protein stability index of 2.2.
FHELQMQVTASDSGDPPLSWNVSL showed a protein stability index of 3.19.
With FHELQMQVTASDSGDPPLSYNVSL the protein stability index was 1.83.
With FHELQMQVTASDSGDPPLSGNVSL the protein stability index was 1.91.
FHELQMQVTASDSGDPPLSENVSL showed a protein stability index of 2.75.
For FHELQMQVTASDSGDPPLSFNVSL, the protein stability index was 2.69.
FHELQMQVTASDSGDPPLSTNVSL showed a protein stability index of 2.
Variant FHELQMQVTASDSGDPPLSPNVSL has a protein stability index of 2.54.
Work on FHELQMQVTASDSGDPPLSHNVSL yielded a protein stability index of 2.05.
FHELQMQVTASDSGDPPLSRNVSL showed a protein stability index of 1.42.
For FHELQMQVTASDSGDPPLSQNVSL, the protein stability index was 1.98.
FHELQMQVTASDSGDPPLSKNVSL gave a protein stability index of 1.85.
FHELQMQVTASDSGDPPLSCNVSL gave a protein stability index of 1.62.
Variant FHELQMQVTASDSGDPPLSDNVSL has a protein stability index of 3.06.
Variant FHELQMQVTASDSGDPPLSANVSL has a protein stability index of 1.82.
With FHELQMQVTASDSGDPPLSNNVSL the protein stability index was 2.47.
With FHELQMQVTASDSGDPPLSVNVSL the protein stability index was 3.46.
With FHELQMQVTASDSGDPPLSLNVSL the protein stability index was 2.69.
